Reference: the supplement of paper PMC9112550, “Optimization of the antimicrobial peptide Bac7 by deep mutational scanning” (BMC Biology, 2022)

System: Escherichia coli TOP10
Assay: shrunken log2 fold change of peptide-encoding DNA abundance (4.5 h post-induction vs induction); higher = less antimicrobial activity (less host growth inhibition)
Conditions: time post-induction: 4.5 h; library: site-saturation at positions 5, 18, 19, 20
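Further: peptides expressed intracellularly from a pBAD plasmid library in pooled LB shake-flask culture, induced with 0.3% L-arabinose, DNA abundance read by NGS, three biological replicates, DESeq2 with apeglm shrinkage.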

For RRIRGRPPRLPRPRPRPGNSPRP, the “shrunken log2 fold change” value was 0.131.
RRIRKRPPRLPRPRPRPPNQPRP was tested, and the “shrunken log2 fold change” value was 0.17.
In the case of RRIRGRPPRLPRPRPRPALHPRP, the “shrunken log2 fold change” value is reported as 0.866.
RRIRNRPPRLPRPRPRPQFTPRP was tested, and the “shrunken log2 fold change” value was -0.259.
For RRIRDRPPRLPRPRPRPFFVPRP, the “shrunken log2 fold change” value was 0.0823.
In the case of RRIRLRPPRLPRPRPRPQQAPRP, the “shrunken log2 fold change” value is reported as -0.0623.
With RRIRRRPPRLPRPRPRPDSCPRP the “shrunken log2 fold change” value was -0.00351.
RRIRYRPPRLPRPRPRPHGAPRP was tested, and the “shrunken log2 fold change” value was -0.0794.
In the case of RRIRCRPPRLPRPRPRPGMNPRP, the “shrunken log2 fold change” value is reported as -0.131.
For RRIRWRPPRLPRPRPRPCALPRP, the “shrunken log2 fold change” value was -0.321.
In the case of RRIRQRPPRLPRPRPRPMMLPRP, the “shrunken log2 fold change” value is reported as 0.052.
In the case of RRIRQRPPRLPRPRPRPYCQPRP, the “shrunken log2 fold change” value is reported as -0.0564.
RRIRDRPPRLPRPRPRPVRNPRP was tested, and the “shrunken log2 fold change” value was 0.282.
With RRIRFRPPRLPRPRPRPTLIPRP the “shrunken log2 fold change” value was -0.19.
RRIRTRPPRLPRPRPRPSNLPRP was tested, and the “shrunken log2 fold change” value was -0.97.
For RRIRCRPPRLPRPRPRPATRPRP, the “shrunken log2 fold change” value was 0.366.
With RRIRNRPPRLPRPRPRPNIPPRP the “shrunken log2 fold change” value was -0.24.
RRIRFRPPRLPRPRPRPVKWPRP was tested, and the “shrunken log2 fold change” value was 0.0401.
In the case of RRIRGRPPRLPRPRPRPCHKPRP, the “shrunken log2 fold change” value is reported as 0.121.
For RRIRNRPPRLPRPRPRPLCNPRP, the “shrunken log2 fold change” value was -0.324.
In the case of RRIRVRPPRLPRPRPRPEQKPRP, the “shrunken log2 fold change” value is reported as -0.0196.
RRIRMRPPRLPRPRPRPMPNPRP was tested, and the “shrunken log2 fold change” value was 0.154.
With RRIRPRPPRLPRPRPRPFHIPRP the “shrunken log2 fold change” value was -0.161.
With RRIRCRPPRLPRPRPRPVVSPRP the “shrunken log2 fold change” value was -0.229.
In the case of RRIRNRPPRLPRPRPRPIIGPRP, the “shrunken log2 fold change” value is reported as 0.0444.
For RRIRWRPPRLPRPRPRPCQHPRP, the “shrunken log2 fold change” value was -0.116.
RRIRFRPPRLPRPRPRPLTKPRP was tested, and the “shrunken log2 fold change” value was -0.2.
With RRIRDRPPRLPRPRPRPDAYPRP the “shrunken log2 fold change” value was 0.0301.
For RRIRGRPPRLPRPRPRPSRGPRP, the “shrunken log2 fold change” value was 0.605.
With RRIRYRPPRLPRPRPRPNPCPRP the “shrunken log2 fold change” value was -0.0242.
In the case of RRIRWRPPRLPRPRPRPCDTPRP, the “shrunken log2 fold change” value is reported as -0.165.
With RRIRKRPPRLPRPRPRPERIPRP the “shrunken log2 fold change” value was 0.00934.
With RRIRLRPPRLPRPRPRPTWRPRP the “shrunken log2 fold change” value was 0.337.
In the case of RRIRHRPPRLPRPRPRPQSSPRP, the “shrunken log2 fold change” value is reported as -0.0152.
For RRIRWRPPRLPRPRPRPTQLPRP, the “shrunken log2 fold change” value was 0.0699.
RRIRNRPPRLPRPRPRPVFIPRP was tested, and the “shrunken log2 fold change” value was -0.459.
RRIRQRPPRLPRPRPRPWVMPRP was tested, and the “shrunken log2 fold change” value was -0.0363.
In the case of RRIRLRPPRLPRPRPRPVCKPRP, the “shrunken log2 fold change” value is reported as 0.000959.
In the case of RRIRHRPPRLPRPRPRPSHAPRP, the “shrunken log2 fold change” value is reported as 0.0238.
RRIRQRPPRLPRPRPRPYSSPRP was tested, and the “shrunken log2 fold change” value was -0.751.
For RRIRLRPPRLPRPRPRPLAMPRP, the “shrunken log2 fold change” value was -0.218.
For RRIRNRPPRLPRPRPRPIGWPRP, the “shrunken log2 fold change” value was 0.115.
For RRIRRRPPRLPRPRPRPMTTPRP, the “shrunken log2 fold change” value was 0.0808.
With RRIRTRPPRLPRPRPRPNEKPRP the “shrunken log2 fold change” value was -0.144.
In the case of RRIRFRPPRLPRPRPRPHYYPRP, the “shrunken log2 fold change” value is reported as -0.524.
With RRIRWRPPRLPRPRPRPWWDPRP the “shrunken log2 fold change” value was 0.0125.
With RRIRCRPPRLPRPRPRPDEPPRP the “shrunken log2 fold change” value was 0.189.
With RRIRRRPPRLPRPRPRPRPLPRP the “shrunken log2 fold change” value was 0.559.
In the case of RRIRGRPPRLPRPRPRPKDTPRP, the “shrunken log2 fold change” value is reported as 0.61.
For RRIRFRPPRLPRPRPRPCYRPRP, the “shrunken log2 fold change” value was -0.573.
With RRIRDRPPRLPRPRPRPYRTPRP the “shrunken log2 fold change” value was -0.0206.
RRIRPRPPRLPRPRPRPIPYPRP was tested, and the “shrunken log2 fold change” value was -0.384.
With RRIRRRPPRLPRPRPRPHMKPRP the “shrunken log2 fold change” value was -0.654.
With RRIRMRPPRLPRPRPRPFCLPRP the “shrunken log2 fold change” value was -0.15.
RRIRHRPPRLPRPRPRPRFKPRP was tested, and the “shrunken log2 fold change” value was -0.153.
RRIRDRPPRLPRPRPRPKEPPRP was tested, and the “shrunken log2 fold change” value was 0.00859.
With RRIRYRPPRLPRPRPRPLNHPRP the “shrunken log2 fold change” value was -0.796.
RRIRFRPPRLPRPRPRPAYEPRP was tested, and the “shrunken log2 fold change” value was 0.0737.
RRIRCRPPRLPRPRPRPFHTPRP was tested, and the “shrunken log2 fold change” value was -0.0266.
RRIRNRPPRLPRPRPRPVFHPRP was tested, and the “shrunken log2 fold change” value was -0.256.
RRIRFRPPRLPRPRPRPNHNPRP was tested, and the “shrunken log2 fold change” value was -0.711.
With RRIRFRPPRLPRPRPRPFMPPRP the “shrunken log2 fold change” value was -0.469.
With RRIRKRPPRLPRPRPRPHPQPRP the “shrunken log2 fold change” value was 0.223.
RRIRQRPPRLPRPRPRPNVHPRP was tested, and the “shrunken log2 fold change” value was -0.258.
For RRIRVRPPRLPRPRPRPEGGPRP, the “shrunken log2 fold change” value was 0.747.
For RRIRTRPPRLPRPRPRPLIVPRP, the “shrunken log2 fold change” value was -0.438.
For RRIRVRPPRLPRPRPRPWEIPRP, the “shrunken log2 fold change” value was -0.00992.
In the case of RRIRCRPPRLPRPRPRPRKAPRP, the “shrunken log2 fold change” value is reported as 0.578.
With RRIRNRPPRLPRPRPRPRRVPRP the “shrunken log2 fold change” value was 0.551.
For RRIRRRPPRLPRPRPRPYMKPRP, the “shrunken log2 fold change” value was -0.0984.
In the case of RRIRKRPPRLPRPRPRPITCPRP, the “shrunken log2 fold change” value is reported as 0.0162.
RRIRLRPPRLPRPRPRPHSNPRP was tested, and the “shrunken log2 fold change” value was -0.443.
With RRIRGRPPRLPRPRPRPMWVPRP the “shrunken log2 fold change” value was 0.168.
For RRIRERPPRLPRPRPRPEAHPRP, the “shrunken log2 fold change” value was 0.201.
With RRIRERPPRLPRPRPRPPQNPRP the “shrunken log2 fold change” value was 0.232.
RRIRNRPPRLPRPRPRPFHKPRP was tested, and the “shrunken log2 fold change” value was -0.107.
With RRIRGRPPRLPRPRPRPCNFPRP the “shrunken log2 fold change” value was 0.138.
In the case of RRIRHRPPRLPRPRPRPVLPPRP, the “shrunken log2 fold change” value is reported as -0.0347.
For RRIRDRPPRLPRPRPRPPTPPRP, the “shrunken log2 fold change” value was 0.564.
For RRIRPRPPRLPRPRPRPAYWPRP, the “shrunken log2 fold change” value was 0.212.
For RRIRPRPPRLPRPRPRPAQEPRP, the “shrunken log2 fold change” value was 0.171.
With RRIRFRPPRLPRPRPRPRALPRP the “shrunken log2 fold change” value was 0.148.
For RRIRCRPPRLPRPRPRPFRIPRP, the “shrunken log2 fold change” value was -0.128.
In the case of RRIRARPPRLPRPRPRPRELPRP, the “shrunken log2 fold change” value is reported as 0.496.
In the case of RRIRLRPPRLPRPRPRPFCQPRP, the “shrunken log2 fold change” value is reported as -0.078.
In the case of RRIRERPPRLPRPRPRPYQPPRP, the “shrunken log2 fold change” value is reported as 0.0223.
In the case of RRIRHRPPRLPRPRPRPMSVPRP, the “shrunken log2 fold change” value is reported as -0.294.
In the case of RRIRHRPPRLPRPRPRPNSCPRP, the “shrunken log2 fold change” value is reported as -0.089.
In the case of RRIRLRPPRLPRPRPRPKNPPRP, the “shrunken log2 fold change” value is reported as -0.606.
For RRIRGRPPRLPRPRPRPDNAPRP, the “shrunken log2 fold change” value was 0.364.
For RRIRFRPPRLPRPRPRPWKVPRP, the “shrunken log2 fold change” value was -0.00133.
For RRIRDRPPRLPRPRPRPGIHPRP, the “shrunken log2 fold change” value was -0.89.
RRIRYRPPRLPRPRPRPSCHPRP was tested, and the “shrunken log2 fold change” value was -0.0195.
For RRIRFRPPRLPRPRPRPLAMPRP, the “shrunken log2 fold change” value was -0.0206.
For RRIRQRPPRLPRPRPRPNYAPRP, the “shrunken log2 fold change” value was -0.0208.
For RRIRIRPPRLPRPRPRPLVGPRP, the “shrunken log2 fold change” value was -0.0442.
With RRIRLRPPRLPRPRPRPVMEPRP the “shrunken log2 fold change” value was 0.233.
For RRIRIRPPRLPRPRPRPCHEPRP, the “shrunken log2 fold change” value was -0.0297.
With RRIRVRPPRLPRPRPRPRQQPRP the “shrunken log2 fold change” value was 0.168.
RRIRLRPPRLPRPRPRPNYYPRP was tested, and the “shrunken log2 fold change” value was -0.773.
For RRIRCRPPRLPRPRPRPTSPPRP, the “shrunken log2 fold change” value was 0.102.
RRIRFRPPRLPRPRPRPLEQPRP was tested, and the “shrunken log2 fold change” value was 0.0789.
For RRIRWRPPRLPRPRPRPCTMPRP, the “shrunken log2 fold change” value was -0.00405.
RRIRRRPPRLPRPRPRPKALPRP was tested, and the “shrunken log2 fold change” value was 0.237.
RRIRYRPPRLPRPRPRPILPPRP was tested, and the “shrunken log2 fold change” value was 0.00451.
In the case of RRIRHRPPRLPRPRPRPQNQPRP, the “shrunken log2 fold change” value is reported as -0.563.
In the case of RRIRERPPRLPRPRPRPMEKPRP, the “shrunken log2 fold change” value is reported as -0.0775.
For RRIRIRPPRLPRPRPRPLQWPRP, the “shrunken log2 fold change” value was -0.013.
RRIRGRPPRLPRPRPRPFFKPRP was tested, and the “shrunken log2 fold change” value was 0.186.
RRIRDRPPRLPRPRPRPINDPRP was tested, and the “shrunken log2 fold change” value was 0.0753.
For RRIRRRPPRLPRPRPRPMLNPRP, the “shrunken log2 fold change” value was -0.157.
In the case of RRIRSRPPRLPRPRPRPMRMPRP, the “shrunken log2 fold change” value is reported as 0.323.
RRIRVRPPRLPRPRPRPHPVPRP was tested, and the “shrunken log2 fold change” value was -0.201.
With RRIRIRPPRLPRPRPRPICDPRP the “shrunken log2 fold change” value was -0.412.
With RRIRWRPPRLPRPRPRPAVIPRP the “shrunken log2 fold change” value was 0.0266.
RRIRVRPPRLPRPRPRPEGLPRP was tested, and the “shrunken log2 fold change” value was 0.0931.
In the case of RRIRDRPPRLPRPRPRPVTNPRP, the “shrunken log2 fold change” value is reported as 0.102.
RRIRCRPPRLPRPRPRPLHSPRP was tested, and the “shrunken log2 fold change” value was -0.383.
In the case of RRIRTRPPRLPRPRPRPRNCPRP, the “shrunken log2 fold change” value is reported as -0.176.
RRIRCRPPRLPRPRPRPETMPRP was tested, and the “shrunken log2 fold change” value was -0.0663.
RRIRWRPPRLPRPRPRPQNDPRP was tested, and the “shrunken log2 fold change” value was -0.0722.
With RRIRPRPPRLPRPRPRPLKDPRP the “shrunken log2 fold change” value was -0.115.
In the case of RRIRHRPPRLPRPRPRPSRTPRP, the “shrunken log2 fold change” value is reported as 0.138.
With RRIRRRPPRLPRPRPRPQVFPRP the “shrunken log2 fold change” value was 0.408.
With RRIRTRPPRLPRPRPRPSYSPRP the “shrunken log2 fold change” value was -0.316.
